Test results taken from article PMC7351111, “WRNIP1 Is Recruited to DNA Interstrand Crosslinks and Promotes Repair” (Cell Reports, 2020).

Biological target: T1, His-ubiquitin (UniProt P0CG48 1-76)
T1 construct: ubiquitin (monomer); also called recombinant ubiquitin; source: recombinant
Assay: pull-down; 2 ug Flag-HA-WRNIP1 or Flag-HA-WRNIP1-19R with 2 ug His-ubiquitin; 300 mM KCl, 40 mM Tris-HCl pH 8.0, 100 ug/ml BSA; 30 C for 1 h; captured on anti-HA Sepharose at 4 C; immunoblot against WRNIP1 and ubiquitin
Conditions: both partners purified

binding result: binds
B1: Flag-HA-WRNIP1 (purified from Sf9 cells) (natural protein, human, UniProt Q96S55 1-665, looked up)
chain: MEVSGPEDDPFLSQLHQVQCPVCQQMMPAAHINSHLDRCLLLHPAGHAEPAAGSHRAGERAKGPSPPGAKRRRLSESSALKQPATPTAAESSEGEGEEGDDGGETESRESYDAPPTPSGARLIPDFPVARSSSPGRKGSGKRPAAAAAAGSASPRSWDEAEAQEEEEAVGDGDGDGDADADGEDDPGHWDADAAEAATAFGASGGGRPHPRALAAEEIRQMLQGKPLADTMRPDTLQDYFGQSKAVGQDTLLRSLLETNEIPSLILWGPPGCGKTTLAHIIASNSKKHSIRFVTLSATNAKTNDVRDVIKQAQNEKSFFKRKTILFIDEIHRFNKSQQDTFLPHVECGTITLIGATTENPSFQVNAALLSRCRVIVLEKLPVEAMVTILMRAINSLGIHVLDSSRPTDPLSHSSNSSSEPAMFIEDKAVDTLAYLSDGDARAGLNGLQLAVLARLSSRKMFCKKSGQSYSPSRVLITENDVKEGLQRSHILYDRAGEEHYNCISALHKSMRGSDQNASLYWLARMLEGGEDPLYVARRLVRFASEDIGLADPSALTQAVAAYQGCHFIGMPECEVLLAQCVVYFARAPKSIEVYSAYNNVKACLRNHQGPLPPVPLHLRNAPTRLMKDLGYGKGYKYNPMYSEPVDQEYLPEELRGVDFFKQRRC
notes: WRNIP1, human; Purification as in Liang et al., 2016; also called wild-type WRNIP1; source: Sf9, purified
